Experimental data reported in patent publication US20250002577A1.

Columns and labels:
[1] = molecular target: LILRB1 and LILRB2 on human primary myeloid cells (monocytes, M0 and M2c macrophages, mDCs, neutrophils); test: flow cytometry, monocytes, AF647-labelled antibody, mean of two subjects
[2] = molecular target: LILRB1 and LILRB2 on human primary myeloid cells (monocytes, M0 and M2c macrophages, mDCs, neutrophils); test: flow cytometry, M0 macrophages, AF647-labelled antibody, mean of two subjects
[3] = molecular target: LILRB1 and LILRB2 on human primary myeloid cells (monocytes, M0 and M2c macrophages, mDCs, neutrophils); test: flow cytometry, M2c macrophages, AF647-labelled antibody, mean of two subjects

B1: Comp 1 (anti-LILRB1 antibody) (antibody, human IgG1, kappa, V domains shown)
VH: QVQLKESGPGLVAPSQSLSITCTVSGFSLTNYGVSWVRQPPGKGLEWLGIIWGDGSTNYHSALISRLSISKDNSKSQVFLKLNSLQADDTATYYCAKPNWDTYAMDFWGQGTSVTVSS
VL: DIQMTQTTSSLSASLGDRVTISCRASQDISNFLNWYQQKPDGTVKLLIYCTSKLHSGVPSRFSGSGSETDYSLTISNLEQEDIATYFCQQGNTLPPTFGGGTKLEIIR
- EC50 [1]: 0.823 µg/mL
- EC50 [2]: 0.0937 µg/mL
- EC50 [3]: 0.0862 µg/mL
